In US20260266848A1, “COMPOSITIONS AND METHODS FOR DIAGNOSING AND TREATING DYSTONIA” (Duke University, priority 2023, published 2026):

B1: Slc9a1 (protein, UniProt Q61165 1-820, looked up)
Sodium/hydrogen exchanger 1: MMLRWSGVWGFHPPRIFPSLLVVVALVGLLPVLRSHGLQHSPTASTIRGSEPPRERSIGDVTTAPSEPLHRPDDHNLTNLIIEHGGKPSRKAFPVLDIDYPHVRTPFEISLWILLACLMKIGFHVIPTISSIVPESCLLIVVGLLVGGLIKGVGETPPFLQSDVFFLFLLPPIILDAGYFLPLRQFTENLGTILIFAVVGTLWNAFFLGGLLYAVCLVGGEQINNIGLLDTLLFGSIISAVDPVAVLAVFEEIHINELLHILVFGESLLNDAVTVVLYHLFEEFASYDSVGISDIFLGFLSFFVVALGGVFVGVVYGVIAAFTSRFTSHIRVIEPLFVFLYSYMAYLSAELFHLSGIMALIASGVVMRPYVEANISHKSHTTIKYFLKMWSSVSETLIFIFLGVSTVAGSHQWNWTFVISTLLFCLIARVLGVLVLTWFINKFRIVKLTPKDQFIIAYGGLRGAIAFSLGYLLDKKHFPMCDLFLTAIITVIFFTVFVQGMTIRPLVDLLAVKKKQETKRSINEEIHTQFLDHLLTGIEDICGHYGHHHWKDKLNRFNKKYVKKCLIAGERSKEPQLIAFYHKMEMKQAIELVESGGMGKIPSAVSTVSMQNIHPKAVTSDRILPALSKDKEEEIRKILRSNLQKTRQRLRSYNRHTLVADPYEEAWNQMLLRRQKARQLEQKITNYLTVPAHKLDSPTLSRARIGSDPLAYEPKADLPVITIDPASPQSPESVDLVNEELKGKVLGLNRGPRVTPEEEEEDEDGIIMIRSKEPSSPGTDDVFTPGSSDSPSSQRIQRCLSDPGPHPEPGEGEPFIPKGQ
B2: Aldh2 (protein, UniProt P47738 20-519, looked up)
Aldehyde dehydrogenase, …: SAAATSAVPAPNHQPEVFCNQIFINNEWHDAVSRKTFPTVNPSTGEVICQVAEGNKEDVDKAVKAARAAFQLGSPWRRMDASDRGRLLYRLADLIERDRTYLAALETLDNGKPYVISYLVDLDMVLKCLRYYAGWADKYHGKTIPIDGDFFSYTRHEPVGVCGQIIPWNFPLLMQAWKLGPALATGNVVVMKVAEQTPLTALYVANLIKEAGFPPGVVNIVPGFGPTAGAAIASHEGVDKVAFTGSTEVGHLIQVAAGSSNLKRVTLELGGKSPNIIMSDADMDWAVEQAHFALFFNQGQCCCAGSRTFVQENVYDEFVERSVARAKSRVVGNPFDSRTEQGPQVDETQFKKILGYIKSGQQEGAKLLCGGGAAADRGYFIQPTVFGDVKDGMTIAKEEIFGPVMQILKFKTIEEVVGRANDSKYGLAAAVFTKDLDKANYLSQALQAGTVWINCYDVFGAQSPFGGYKMSGSGRELGEYGLQAYTEVKTVTVKVPQKNS
B3: Txnl1 (protein, UniProt O43396 2-289, looked up)
Thioredoxin-like protein 1: VGVKPVGSDPDFQPELSGAGSRLAVVKFTMRGCGPCLRIAPAFSSMSNKYPQAVFLEVDVHQCQGTAATNNISATPTFLFFRNKVRIDQYQGADAVGLEEKIKQHLENDPGSNEDTDIPKGYMDLMPFINKAGCECLNESDEHGFDNCLRKDTTFLESDCDEQLLITVAFNQPVKLYSMKFQGPDNGQGPKYVKIFINLPRSMDFEEAERSEPTQALELTEDDIKEDGIVPLRYVKFQNVNSVTIFVQSNQGEEETTRISYFTFIGTPVQATNMNDFKRVVGKKGESH
B4: Nectin2 (protein, UniProt Q92692 32-538, looked up)
Nectin-2: QDVRVQVLPEVRGQLGGTVELPCHLLPPVPGLYISLVTWQRPDAPANHQNVAAFHPKMGPSFPSPKPGSERLSFVSAKQSTGQDTEAELQDATLALHGLTVEDEGNYTCEFATFPKGSVRGMTWLRVIAKPKNQAEAQKVTFSQDPTTVALCISKEGRPPARISWLSSLDWEAKETQVSGTLAGTVTVTSRFTLVPSGRADGVTVTCKVEHESFEEPALIPVTLSVRYPPEVSISGYDDNWYLGRTDATLSCDVRSNPEPTGYDWSTTSGTFPTSAVAQGSQLVIHAVDSLFNTTFVCTVTNAVGMGRAEQVIFVRETPNTAGAGATGGIIGGIIAAIIATAVAATGILICRQQRKEQTLQGAEEDEDLEGPPSYKPPTPKAKLEAQEMPSQLFTLGASEHSPLKTPYFDAGASCTEQEMPRYHELPTLEERSGPLHPGATSLGSPIPVPPGPPAVEDVSLDLEDEEGEEEEEYLDKINPIYDALSYSSPSDSYQGKGFVMSRAMYV
B5: Nif3l1 (protein, UniProt Q9EQ80 1-376, looked up)
NIF3-like protein 1: MLSSAHLVPTSVQRAQSWICRSSRSFMDLKALLSSLNDFASLSFAESWDNVGLLVEPSPPHTVNTLFLTNDLTEEVMDEALQKKADFILSYHPPIFRPMKHITWKTWKECLVIRALENRVAVYSPHTAYDAAPQGVNSWLAKGLGTCTTRPIHPSRAPDYPTEGAHRLEFSVNRSQDLDKVMSTLRGVGGVSVTSFPARCDGEEQTRISLNCTQKTLMQVLAFLSQDRQLYQKTEILSLEKPLLLHTGMGRLCTLDESVSLAIMIERIKTHLKLSHLRLALGVGRTLESQVKVVALCAGSGGSVLQGVEADLYLTGEMSHHDVLDAASKGINVILCEHSNTERGFLSELQEMLGVHFENKINIILSETDRDPLRVV
B6: Fgfr1 (protein, UniProt P16092 22-822, looked up)
Fibroblast growth factor …: RPAPTLPEQAQPWGVPVEVESLLVHPGDLLQLRCRLRDDVQSINWLRDGVQLVESNRTRITGEEVEVRDSIPADSGLYACVTSSPSGSDTTYFSVNVSDALPSSEDDDDDDDSSSEEKETDNTKPNRRPVAPYWTSPEKMEKKLHAVPAAKTVKFKCPSSGTPNPTLRWLKNGKEFKPDHRIGGYKVRYATWSIIMDSVVPSDKGNYTCIVENEYGSINHTYQLDVVERSPHRPILQAGLPANKTVALGSNVEFMCKVYSDPQPHIQWLKHIEVNGSKIGPDNLPYVQILKTAGVNTTDKEMEVLHLRNVSFEDAGEYTCLAGNSIGLSHHSAWLTVLEALEERPAVMTSPLYLEIIIYCTGAFLISCMLGSVIIYKMKSGTKKSDFHSQMAVHKLAKSIPLRRQVTVSADSSASMNSGVLLVRPSRLSSSGTPMLAGVSEYELPEDPRWELPRDRLVLGKPLGEGCFGQVVLAEAIGLDKDKPNRVTKVAVKMLKSDATEKDLSDLISEMEMMKMIGKHKNIINLLGACTQDGPLYVIVEYASKGNLREYLQARRPPGLEYCYNPSHNPEEQLSSKDLVSCAYQVARGMEYLASKKCIHRDLAARNVLVTEDNVMKIADFGLARDIHHIDYYKKTTNGRLPVKWMAPEALFDRIYTHQSDVWSFGVLLWEIFTLGGSPYPGVPVEELFKLLKEGHRMDKPSNCTNELYMMMRDCWHAVPSQRPTFKQLVEDLDRIVALTSNQEYLDLSIPLDQYSPSFPDTRSSTCSSGEDSVFSHEPLPEEPCLPRHPTQLANSGLKRR
B7: Steap3 (protein, UniProt Q8CI59 1-488, looked up)
Metalloreductase STEAP3: MSGEMDKPLISRRLVDSDGSLAEVPKEAPKVGILGSGDFARSLATRLVGSGFSVVVGSRNPKRTAGLFPSLAQVTFQEEAVSSPEVIFVAVFREHYSSLCSLADQLAGKILVDVSNPTEKEHLQHRQSNAEYLASLFPACTVVKAFNVISAWALQAGPRDGNRQVLICSDQPEAKRTISEMARAMGFTPLDMGSLASAREVEAIPLRLLPSWKVPTLLALGLFVCFYTYNFIRDVLQPYIRKDENKFYKMPLSVVNTTLPCVAYVLLSLVYLPGVLAAALQLRRGTKYQRFPDWLDHWLQHRKQIGLLSFFFAMLHALYSFCLPLRRSHRYDLVNLAVKQVLANKSRLWVEEEVWRMEIYLSLGVLALGMLSLLAVTSLPSIANSLNWKEFSFVQSTLGFVALILSTMHTLTYGWTRAFEENHYKFYLPPTFTLTLLLPCVIILAKGLFLLPCLSRRLTKIRRGWEKDGAVKFMLPGDHTQGEKTSHV

Each molecule was assayed on WT MEF EVs (assay: Quantitative LC-MS/MS proteomics of EVs from ISRIB-treated WT MEF cultures). Conditions: EV protein abundance, ISRIB-treated WT vs WT.
Assay type: cell-based, mouse
Parameters: key to ISRIB and DYT Parallel Direction / ISRIB and DYT Parallel Direction, Ctdsp1 / ISRIB and DYT Parallel Direction, Pcdh19 / ISRIB and DYT Parallel Direction, Tspan7 / ISRIB and DYT Parallel Direction, Myo1e / ISRIB and DYT Parallel Direction, Plpp3 / ISRIB and DYT Parallel Direction, Sh3bp4 / ISRIB and DYT Parallel Direction, Dnajc7 / ISRIB and DYT Parallel Direction, Drg1 / ISRIB and DYT Parallel Direction, Maea: YES = protein abundance effect similar to DYT/WT

Molecule	WT + ISRIB/WT Cohen's d
B1	0.44
B2	−7.25
B3	−0.66
B4	−1.19
B5	−3.93
B6	5.66
B7	−3.91

Same assay, conditions: EV protein abundance, WT + ISRIB vs WT, direction compared with DYT/WT

Molecule	ISRIB and DYT Parallel Direction
B1	YES
B2	YES
B3	YES
B4	YES
B5	YES
B6	YES
B7	YES

Each molecule was assayed on DYT-TOR1A MEF EVs (assay: Quantitative LC-MS/MS proteomics of EVs from drug-treated DYT-TOR1A MEF cultures (ritonavir, salubrinal)). Conditions: EV protein abundance, DYT + RTV (ritonavir) vs DYT, direction compared with DYT/WT.
Assay type: cell-based, mouse
Parameters: key to RTV Corrective Direction / RTV Corrective Direction, Grwd1 / RTV Corrective Direction, Srrm2 / RTV Corrective Direction, Rbm17 / RTV Corrective Direction, Dcaf8 / RTV Corrective Direction, Edil3 / RTV Corrective Direction, Timp3 / RTV Corrective Direction, Heatr3 / RTV Corrective Direction, Brd4 / RTV Corrective Direction, P3h4 / RTV Corrective Direction, Pacsin3 / RTV Corrective Direction, Naa50 / RTV Corrective Direction, Lpar6 / RTV Corrective Direction, Ndrg1 / RTV Corrective Direction, Kntc1 / RTV Corrective Direction, Cdk11b / RTV Corrective Direction, Sumo1 / RTV Corrective Direction, Lsm4 / RTV Corrective Direction, Hmga2 / RTV Corrective Direction, Cstf1 / RTV Corrective Direction, Tes / RTV Corrective Direction, Sbno1 / RTV Corrective Direction, Unc119b / RTV Corrective Direction, Cfdp1 / RTV Corrective Direction, Sec61b: YES = protein abundance effect opposite to DYT/WT

Molecule	RTV Corrective Direction
B1	YES
B2	YES
B3	YES
B4	YES
B5	YES
B6	YES
B7	YES

Same assay, conditions: EV protein abundance, ritonavir (RTV)-treated DYT vs DYT

Molecule	DYT + RTV/DYT Cohen's d
B1	−2.60
B2	18.21
B3	1.99
B4	3.32
B5	1.58
B6	−2.81
B7	1.81
